B1: MCC 8-mer peptide spanning the C-terminus (PDZ-binding motif) of human MCC (peptide)
peptide: PHTNETSL
B2: MCC_SE 8-mer peptide (Ser to Glu at position -1) (peptide)
peptide: PHTNETEL
B3: MCC_SD 8-mer peptide (Ser to Asp at position -1) (peptide)
peptide: PHTNETDL
B4: phosphorylated MCC 8-mer peptide (phospho-Ser at position -1) (peptide)
peptide: PHTNET[pS]L

Consider four molecules from article doi:10.1101/501064 (bioRxiv, 2018).

Non-standard residues stand in square brackets, D forms with d. No end group written: not given here. pS = N[C@@H](COP(=O)(O)O)C(=O)O

Sequence of human Scribble PDZ1 domain (728-815) (Q14160 728-815): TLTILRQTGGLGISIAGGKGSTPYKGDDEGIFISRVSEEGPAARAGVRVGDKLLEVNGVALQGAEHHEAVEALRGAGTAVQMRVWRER

One experiment has as its target human Scribble PDZ1 domain (728-815) (human, UniProt Q14160 728-815). The experiment can be described thus: ITC. For orientation: ITC needs no label: the signal is the heat of the interaction.
The molecule B1 had a Kd of 7.7 µM.

B2 showed a dissociation constant (Kd) of 7.2 µM.

B3 registered a Kd of 7 µM.

As for B4, the Kd was determined as 6.1 µM.

The target in the next experiment is T1, human Scribble PDZ3 domain (1005-1094) (human, UniProt Q14160 1005-1094).
T1 sequence (looked up): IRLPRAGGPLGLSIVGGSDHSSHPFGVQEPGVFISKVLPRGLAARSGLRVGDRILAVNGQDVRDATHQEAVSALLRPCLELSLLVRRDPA
As to the kind of experiment: ITC.
Regarding B1, the Kd was found to be 5 µM.

As for B2, the Kd worked out at 4.5 µM.

B3 registered a Kd of 3.4 µM.

Molecule B4 registered an equilibrium dissociation constant (Kd) of 3.7 µM.

As usually defined, the Kd is the constant that tells how readily two partners part at equilibrium. A lower Kd goes with higher affinity.
